Columns and labels:
Test in all cases: cell-based or functional assay
HIV-1 Env of 3016.V5.c36 = HIV-1 Env of 3016.V5.c36 (HIV-1)
HIV-1 Env of REJO.67 = HIV-1 Env of REJO.67 (HIV-1)
HIV-1 Env of CAP256.PI = HIV-1 Env of CAP256.PI (HIV-1)
HIV-1 Env of WITO.33 = HIV-1 Env of WITO.33 (HIV-1)
HIV-1 Env of Q461.e2 = HIV-1 Env of Q461.e2 (HIV-1)
HIV-1 Env of 191821.E6.1 = HIV-1 Env of 191821.E6.1 (HIV-1)
HIV-1 Env of C1080.c3 = HIV-1 Env of C1080.c3 (HIV-1)
HIV-1 Env of DU422.01 = HIV-1 Env of DU422.01 (HIV-1)
HIV-1 Env of KER2008.12 = HIV-1 Env of KER2008.12 (HIV-1)
HIV-1 Env of RHPA.7 = HIV-1 Env of RHPA.7 (HIV-1)
Env of SIVmac251.30 = Env of SIVmac251.30 (SIV (printed as nonHIV))
HIV-1 Env of PVO.04 = HIV-1 Env of PVO.04 (HIV-1)
HIV-1 Env of TRJO.58 = HIV-1 Env of TRJO.58 (HIV-1)
HIV-1 Env of Q769.d22 = HIV-1 Env of Q769.d22 (HIV-1)
HIV-1 Env of MB539.2B7 = HIV-1 Env of MB539.2B7 (HIV-1)
HIV-1 Env of ZM214.15 = HIV-1 Env of ZM214.15 (HIV-1)
HIV-1 Env of DU156.12 = HIV-1 Env of DU156.12 (HIV-1)
HIV-1 Env of RW020.2 = HIV-1 Env of RW020.2 (HIV-1)
HIV-1 Env of BG505.w6m = HIV-1 Env of BG505.w6m (HIV-1)
HIV-1 Env of Q23.17 = HIV-1 Env of Q23.17 (HIV-1)
HIV-1 Env of CAP256.SU = HIV-1 Env of CAP256.SU (HIV-1)
HIV-1 Env of Q168.a2 = HIV-1 Env of Q168.a2 (HIV-1)
HIV-1 Env of CAAN.A2 = HIV-1 Env of CAAN.A2 (HIV-1)
HIV-1 Env of CAP45.G3 = HIV-1 Env of CAP45.G3 (HIV-1)
HIV-1 Env of TH976.17 = HIV-1 Env of TH976.17 (HIV-1)
HIV-1 Env of CNE3 = HIV-1 Env of CNE3 (HIV-1)
HIV-1 Env of QH0692.42 = HIV-1 Env of QH0692.42 (HIV-1)
HIV-1 Env of 96ZM651.02 = HIV-1 Env of 96ZM651.02 (HIV-1)
HIV-1 Env of Q842.d12 = HIV-1 Env of Q842.d12 (HIV-1)
HIV-1 Env of SC422.8 = HIV-1 Env of SC422.8 (HIV-1)
HIV-1 Env of CAP244.D3 = HIV-1 Env of CAP244.D3 (HIV-1)
HIV-1 Env of MB201 = HIV-1 Env of MB201 (HIV-1)
HIV-1 Env of THRO.18 = HIV-1 Env of THRO.18 (HIV-1)
HIV-1 Env of ZM53.12 = HIV-1 Env of ZM53.12 (HIV-1)
HIV-1 Env of ZM109.4 = HIV-1 Env of ZM109.4 (HIV-1)
HIV-1 Env of 0260.v5.c36 = HIV-1 Env of 0260.v5.c36 (HIV-1)
HIV-1 Env of Q259.d2.17 = HIV-1 Env of Q259.d2.17 (HIV-1)
HIV-1 Env of CAP210.E8 = HIV-1 Env of CAP210.E8 (HIV-1)
HIV-1 Env of ZM135.10a = HIV-1 Env of ZM135.10a (HIV-1)
HIV-1 Env of 6535.3 = HIV-1 Env of 6535.3 (HIV-1)
HIV-1 Env of 6405.v4.c34 = HIV-1 Env of 6405.v4.c34 (HIV-1)
HIV-1 Env of CM244.ec1 = HIV-1 Env of CM244.ec1 (HIV-1)
HIV-1 Env of ZM197.7 = HIV-1 Env of ZM197.7 (HIV-1)
HIV-1 Env of ZM249.1 = HIV-1 Env of ZM249.1 (HIV-1)
HIV-1 Env of DU172.17 = HIV-1 Env of DU172.17 (HIV-1)
HIV-1 Env of AC10.29 = HIV-1 Env of AC10.29 (HIV-1)
HIV-1 Env of TRO.11 = HIV-1 Env of TRO.11 (HIV-1)
HIV-1 Env of ZM233.6 = HIV-1 Env of ZM233.6 (HIV-1)
HIV-1 Env of UG037.8 = HIV-1 Env of UG037.8 (HIV-1)
HIV-1 Env of KER2018.11 = HIV-1 Env of KER2018.11 (HIV-1)

B1: CAP256-VRC26.06 (antibody, V domains shown)
VH: EVQLIESGGGVVQPGRSLRLSCGASGFSFNNYGMHWVRQAPGKGLEWVAGISFAGIKKYYGTSVKGRFTISRDNSKNNFYLQMNSLRVEDTALYYCARDLRELECEEWTLYNYYDFGSRGPCVDPRGVAGSFDVWGQGTMVTVSS
VL: QSVLTQPPSVSAAPGQKVTISCSGSTSKIGQNSVSWYQQLPGTAPKLLIYENDRRPSGTPDRFSGSKSGTSATLAITGLQTGDEAEYYCETWDGSGGVFGTGTKVTVLG
HIV-1 Env of 3016.V5.c36
  neutralization IC50: > 50 µg/mL
HIV-1 Env of REJO.67
  neutralization IC50: > 50 µg/mL
HIV-1 Env of CAP256.PI
  neutralization IC50: 0.03 µg/mL
HIV-1 Env of WITO.33
  neutralization IC50: 0.003 µg/mL
HIV-1 Env of Q461.e2
  neutralization IC50: > 50 µg/mL
HIV-1 Env of 191821.E6.1
  neutralization IC50: > 50 µg/mL
HIV-1 Env of C1080.c3
  neutralization IC50: > 50 µg/mL
HIV-1 Env of DU422.01
  neutralization IC50: > 50 µg/mL
HIV-1 Env of KER2008.12
  neutralization IC50: > 50 µg/mL
HIV-1 Env of RHPA.7
  neutralization IC50: > 50 µg/mL
Env of SIVmac251.30
  neutralization IC50: > 50 µg/mL
HIV-1 Env of PVO.04
  neutralization IC50: 0.308 µg/mL
HIV-1 Env of TRJO.58
  neutralization IC50: > 50 µg/mL
HIV-1 Env of Q769.d22
  neutralization IC50: > 50 µg/mL
HIV-1 Env of MB539.2B7
  neutralization IC50: > 50 µg/mL
HIV-1 Env of ZM214.15
  neutralization IC50: > 50 µg/mL
HIV-1 Env of DU156.12
  neutralization IC50: > 50 µg/mL
HIV-1 Env of RW020.2
  neutralization IC50: > 50 µg/mL
HIV-1 Env of BG505.w6m
  neutralization IC50: > 50 µg/mL
HIV-1 Env of Q23.17
  neutralization IC50: > 50 µg/mL
HIV-1 Env of CAP256.SU
  neutralization IC50: 0.055 µg/mL
HIV-1 Env of Q168.a2
  neutralization IC50: > 50 µg/mL
HIV-1 Env of CAAN.A2
  neutralization IC50: > 50 µg/mL
HIV-1 Env of CAP45.G3
  neutralization IC50: > 50 µg/mL
HIV-1 Env of TH976.17
  neutralization IC50: > 50 µg/mL
HIV-1 Env of CNE3
  neutralization IC50: > 50 µg/mL
HIV-1 Env of QH0692.42
  neutralization IC50: > 50 µg/mL
HIV-1 Env of 96ZM651.02
  neutralization IC50: > 50 µg/mL
HIV-1 Env of Q842.d12
  neutralization IC50: > 50 µg/mL
HIV-1 Env of SC422.8
  neutralization IC50: 0.178 µg/mL
HIV-1 Env of CAP244.D3
  neutralization IC50: > 50 µg/mL
HIV-1 Env of MB201
  neutralization IC50: > 50 µg/mL
HIV-1 Env of THRO.18
  neutralization IC50: 4.25 µg/mL
HIV-1 Env of ZM53.12
  neutralization IC50: 0.222 µg/mL
HIV-1 Env of ZM109.4
  neutralization IC50: > 50 µg/mL
HIV-1 Env of 0260.v5.c36
  neutralization IC50: > 50 µg/mL
HIV-1 Env of Q259.d2.17
  neutralization IC50: > 50 µg/mL
HIV-1 Env of CAP210.E8
  neutralization IC50: 0.729 µg/mL
HIV-1 Env of ZM135.10a
  neutralization IC50: > 50 µg/mL
HIV-1 Env of 6535.3
  neutralization IC50: > 50 µg/mL
HIV-1 Env of 6405.v4.c34
  neutralization IC50: > 50 µg/mL
HIV-1 Env of CM244.ec1
  neutralization IC50: > 50 µg/mL
HIV-1 Env of ZM197.7
  neutralization IC50: > 50 µg/mL
HIV-1 Env of ZM249.1
  neutralization IC50: > 50 µg/mL
HIV-1 Env of DU172.17
  neutralization IC50: > 50 µg/mL
HIV-1 Env of AC10.29
  neutralization IC50: 0.022 µg/mL
HIV-1 Env of TRO.11
  neutralization IC50: > 50 µg/mL
HIV-1 Env of ZM233.6
  neutralization IC50: > 50 µg/mL
HIV-1 Env of UG037.8
  neutralization IC50: > 50 µg/mL
HIV-1 Env of KER2018.11
  neutralization IC50: > 50 µg/mL

Reference: patent publication US20200199204A1 (UNITED STATES OF AMERICA AS REPRESENTED BY THE SECRETARY …, published 2020)
